T1: FLAG-tagged PlexinA4 extracellular region (mouse, UniProt Q80UG2 33-1226)
T1 construct: mouse PlexinA4 residues 33–1226, extracellular region; FLAG inserted immediately after the signal peptide; also called PlexinA4-WT; source: Expi293F, purified from medium (Ni-NTA, Superose 6); not shown: FLAG, N-terminal, kept
T1 sequence (looked up): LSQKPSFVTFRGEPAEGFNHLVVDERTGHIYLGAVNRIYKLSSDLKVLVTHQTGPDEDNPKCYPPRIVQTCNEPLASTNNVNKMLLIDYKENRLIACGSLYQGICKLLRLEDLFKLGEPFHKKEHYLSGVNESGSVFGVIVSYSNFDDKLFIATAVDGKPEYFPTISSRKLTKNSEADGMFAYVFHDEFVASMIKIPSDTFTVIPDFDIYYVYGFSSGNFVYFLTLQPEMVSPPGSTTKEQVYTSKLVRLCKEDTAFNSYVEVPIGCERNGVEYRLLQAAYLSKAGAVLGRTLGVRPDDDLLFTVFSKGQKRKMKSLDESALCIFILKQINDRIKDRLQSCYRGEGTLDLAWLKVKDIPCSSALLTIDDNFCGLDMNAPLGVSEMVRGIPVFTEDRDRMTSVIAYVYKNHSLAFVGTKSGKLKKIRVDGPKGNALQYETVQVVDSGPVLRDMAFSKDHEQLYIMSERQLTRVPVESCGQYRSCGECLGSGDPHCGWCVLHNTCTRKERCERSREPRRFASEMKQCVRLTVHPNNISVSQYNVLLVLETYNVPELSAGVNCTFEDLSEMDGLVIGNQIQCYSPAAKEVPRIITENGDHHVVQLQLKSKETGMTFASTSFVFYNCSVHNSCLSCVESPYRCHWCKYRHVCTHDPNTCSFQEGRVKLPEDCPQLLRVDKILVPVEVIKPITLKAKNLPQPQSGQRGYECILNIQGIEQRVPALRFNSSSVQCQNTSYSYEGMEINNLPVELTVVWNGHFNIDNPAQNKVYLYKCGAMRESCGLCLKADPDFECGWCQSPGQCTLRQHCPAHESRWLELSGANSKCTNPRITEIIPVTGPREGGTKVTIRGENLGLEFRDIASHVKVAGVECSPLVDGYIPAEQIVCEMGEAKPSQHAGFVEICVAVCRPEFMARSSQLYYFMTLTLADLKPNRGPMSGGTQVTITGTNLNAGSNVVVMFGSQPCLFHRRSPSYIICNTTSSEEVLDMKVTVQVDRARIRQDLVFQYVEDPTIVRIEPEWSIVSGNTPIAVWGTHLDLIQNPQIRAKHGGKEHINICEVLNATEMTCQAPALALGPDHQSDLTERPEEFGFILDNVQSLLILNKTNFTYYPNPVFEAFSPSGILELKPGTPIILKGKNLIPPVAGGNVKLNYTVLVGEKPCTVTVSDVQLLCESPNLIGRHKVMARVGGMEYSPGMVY


Each binder was assayed against T1, FLAG-tagged PlexinA4 extracellular … (assay: pull-down; FLAG-tagged PlexinA4 (20 µg) on anti-FLAG antibody resin; Nrp1 and Sema3A, 30 µg each, added together; 20 mM HEPES (pH 7.5), 150 mM NaCl, 1 mM CaCl2, 4 °C, 1 h; SDS-PAGE, Coomassie blue). Details: both partners purified.

binding result	Binder
binds	Nrp1-a1a2b1b2 A252E (receptor, mouse, UniProt P97333 22-588, looked up, mouse Neuropilin 1 residues 22–588 (a1a2b1b2) with A252E; also called Nrp1-A252E; A252E mutant; source: Expi293F, purified from medium (Ni-NTA, Superose 6)) FRSDKCGGTIKIENPGYLTSPGYPHSYHPSEKCEWLIQAPEPYQRIMINFNPHFDLEDRDCKYDYVEVIDGENEGGRLWGKFCGKIAPSPVVSSGPFLFIKFVSDYETHGAGFSIRYEIFKRGPECSQNYTAPTGVIKSPGFPEKYPNSLECTYIIFAPKMSEIILEFESFDLEQDSNPPGGMFCRYDRLEIWDGFPEVGPHIGRYCGQKTPGRIRSSSGVLSMVFYTDSEIAKEGFSANYSVLQSSISEDFKCMEALGMESGEIHSDQITASSQYGTNWSVERSRLNYPENGWTPGEDSYKEWIQVDLGLLRFVTAVGTQGAISKETKKKYYVKTYRVDISSNGEDWISLKEGNKAIIFQGNTNPTDVVLGVFSKPLITRFVRIKPVSWETGISMRFEVYGCKITDYPCSGMLGMVSGLISDSQITASNQADRNWMPENIRLVTSRTGWALPPSPHPYTNEWLQVDLGDEKIVRGVIIQGGKHRENKVFMRKFKIAYSNNGSDWKTIMDDSKRKAKSFEGNNNYDTPELRTFSPLSTRFIRIYPERATHSGLGLRMELLGCEVEAP
binds	Nrp1-a1a2b1b2 E128R (receptor, mouse, UniProt P97333 22-588, looked up, mouse Neuropilin 1 residues 22–588 (a1a2b1b2) with E128R; also called Nrp1-E128R; source: Expi293F, purified from medium (Ni-NTA, Superose 6)) FRSDKCGGTIKIENPGYLTSPGYPHSYHPSEKCEWLIQAPEPYQRIMINFNPHFDLEDRDCKYDYVEVIDGENEGGRLWGKFCGKIAPSPVVSSGPFLFIKFVSDYRTHGAGFSIRYEIFKRGPECSQNYTAPTGVIKSPGFPEKYPNSLECTYIIFAPKMSEIILEFESFDLEQDSNPPGGMFCRYDRLEIWDGFPEVGPHIGRYCGQKTPGRIRSSSGVLSMVFYTDSAIAKEGFSANYSVLQSSISEDFKCMEALGMESGEIHSDQITASSQYGTNWSVERSRLNYPENGWTPGEDSYKEWIQVDLGLLRFVTAVGTQGAISKETKKKYYVKTYRVDISSNGEDWISLKEGNKAIIFQGNTNPTDVVLGVFSKPLITRFVRIKPVSWETGISMRFEVYGCKITDYPCSGMLGMVSGLISDSQITASNQADRNWMPENIRLVTSRTGWALPPSPHPYTNEWLQVDLGDEKIVRGVIIQGGKHRENKVFMRKFKIAYSNNGSDWKTIMDDSKRKAKSFEGNNNYDTPELRTFSPLSTRFIRIYPERATHSGLGLRMELLGCEVEAP
binds	Nrp1-a1a2b1b2 S251E (receptor, mouse, UniProt P97333 22-588, looked up, mouse Neuropilin 1 residues 22–588 (a1a2b1b2) with S251E; also called Nrp1-S251E; source: Expi293F, purified from medium (Ni-NTA, Superose 6)) FRSDKCGGTIKIENPGYLTSPGYPHSYHPSEKCEWLIQAPEPYQRIMINFNPHFDLEDRDCKYDYVEVIDGENEGGRLWGKFCGKIAPSPVVSSGPFLFIKFVSDYETHGAGFSIRYEIFKRGPECSQNYTAPTGVIKSPGFPEKYPNSLECTYIIFAPKMSEIILEFESFDLEQDSNPPGGMFCRYDRLEIWDGFPEVGPHIGRYCGQKTPGRIRSSSGVLSMVFYTDEAIAKEGFSANYSVLQSSISEDFKCMEALGMESGEIHSDQITASSQYGTNWSVERSRLNYPENGWTPGEDSYKEWIQVDLGLLRFVTAVGTQGAISKETKKKYYVKTYRVDISSNGEDWISLKEGNKAIIFQGNTNPTDVVLGVFSKPLITRFVRIKPVSWETGISMRFEVYGCKITDYPCSGMLGMVSGLISDSQITASNQADRNWMPENIRLVTSRTGWALPPSPHPYTNEWLQVDLGDEKIVRGVIIQGGKHRENKVFMRKFKIAYSNNGSDWKTIMDDSKRKAKSFEGNNNYDTPELRTFSPLSTRFIRIYPERATHSGLGLRMELLGCEVEAP
binds	Nrp1-a1a2b1b2 H74A (receptor, mouse, UniProt P97333 22-588, looked up, mouse Neuropilin 1 residues 22–588 (a1a2b1b2) with H74A; also called H74A mutation of Nrp1; source: Expi293F, purified from medium (Ni-NTA, Superose 6)) FRSDKCGGTIKIENPGYLTSPGYPHSYHPSEKCEWLIQAPEPYQRIMINFNPAFDLEDRDCKYDYVEVIDGENEGGRLWGKFCGKIAPSPVVSSGPFLFIKFVSDYETHGAGFSIRYEIFKRGPECSQNYTAPTGVIKSPGFPEKYPNSLECTYIIFAPKMSEIILEFESFDLEQDSNPPGGMFCRYDRLEIWDGFPEVGPHIGRYCGQKTPGRIRSSSGVLSMVFYTDSAIAKEGFSANYSVLQSSISEDFKCMEALGMESGEIHSDQITASSQYGTNWSVERSRLNYPENGWTPGEDSYKEWIQVDLGLLRFVTAVGTQGAISKETKKKYYVKTYRVDISSNGEDWISLKEGNKAIIFQGNTNPTDVVLGVFSKPLITRFVRIKPVSWETGISMRFEVYGCKITDYPCSGMLGMVSGLISDSQITASNQADRNWMPENIRLVTSRTGWALPPSPHPYTNEWLQVDLGDEKIVRGVIIQGGKHRENKVFMRKFKIAYSNNGSDWKTIMDDSKRKAKSFEGNNNYDTPELRTFSPLSTRFIRIYPERATHSGLGLRMELLGCEVEAP
binds	Sema3A (21–770) F386A (ligand, mouse, UniProt O08665 21-770, looked up, mouse Sema3A residues 21–770 with F386A; internal furin sites mutated; without A106K; also called F386A mutation of Sema3A; source: Expi293F, purified from medium (Ni-NTA, Superose 6)) NYANGKNNVPRLKLSYKEMLESNNVITFNGLANSSSYHTFLLDEERSRLYVGAKDHIFSFNLVNIKDFQKIVWPVSYTRRDECKWAGKDILKECANFIKVLEAYNQTHLYACGTGAFHPICTYIEVGHHPEDNIFKLQDSHFENGRGKSPYDPKLLTASLLIDGELYSGTAADFMGRDFAIFRTLGHHHPIRTEQHDSRWLNDPRFISAHLIPESDNPEDDKVYFFFRENAIDGEHSGKATHARIGQICKNDFGGHRSLVNKWTTFLKARLICSVPGPNGIDTHFDELQDVFLMNSKDPKNPIVYGVFTTSSNIFKGSAVCMYSMSDVRRVFLGPYAHRDGPNYQWVPYQGRVPYPRPGTCPSKTAGGFDSTKDLPDDVITFARSHPAMYNPVFPINNRPIMIKTDVNYQFTQIVVDRVDAEDGQYDVMFIGTDVGTVLKVVSVPKETWHDLEEILLEEMTVFREPTTISAMELSTKQQQLYIGSTAGVAQLPLHRCDIYGKACAECCLARDPYCAWDGSSCSRYFPTAKARTRAQDIRNGDPLTHCSDLQHHDNHHGPSLEERIIYGVENSSTFLECSPKSQRALVYWQFQRRNEDRKEEIRMGDHIIRTEQGLLLRSLQKKDSGNYLCHAVEHGFMQTLLKVTLEVIDTEHLEELLHKDDDGDGSKIKEMSSSMTPSQKVWYRDFMQLINHPNLNTMDEFCEQVWKRDAAQAAQRPGHSQGSSNKWKHMQESKKGANRATHEFERAPR
binds	Sema3A (21–770) K497E (ligand, mouse, UniProt O08665 21-770, looked up, mouse Sema3A residues 21–770 with K497E; internal furin sites mutated; without A106K; also called Sema3A-K497E; Seme3A-K497E; source: Expi293F, purified from medium (Ni-NTA, Superose 6)) NYANGKNNVPRLKLSYKEMLESNNVITFNGLANSSSYHTFLLDEERSRLYVGAKDHIFSFNLVNIKDFQKIVWPVSYTRRDECKWAGKDILKECANFIKVLEAYNQTHLYACGTGAFHPICTYIEVGHHPEDNIFKLQDSHFENGRGKSPYDPKLLTASLLIDGELYSGTAADFMGRDFAIFRTLGHHHPIRTEQHDSRWLNDPRFISAHLIPESDNPEDDKVYFFFRENAIDGEHSGKATHARIGQICKNDFGGHRSLVNKWTTFLKARLICSVPGPNGIDTHFDELQDVFLMNSKDPKNPIVYGVFTTSSNIFKGSAVCMYSMSDVRRVFLGPYAHRDGPNYQWVPYQGRVPYPRPGTCPSKTFGGFDSTKDLPDDVITFARSHPAMYNPVFPINNRPIMIKTDVNYQFTQIVVDRVDAEDGQYDVMFIGTDVGTVLKVVSVPKETWHDLEEILLEEMTVFREPTTISAMELSTEQQQLYIGSTAGVAQLPLHRCDIYGKACAECCLARDPYCAWDGSSCSRYFPTAKARTRAQDIRNGDPLTHCSDLQHHDNHHGPSLEERIIYGVENSSTFLECSPKSQRALVYWQFQRRNEDRKEEIRMGDHIIRTEQGLLLRSLQKKDSGNYLCHAVEHGFMQTLLKVTLEVIDTEHLEELLHKDDDGDGSKIKEMSSSMTPSQKVWYRDFMQLINHPNLNTMDEFCEQVWKRDAAQAAQRPGHSQGSSNKWKHMQESKKGANRATHEFERAPR
